Test [1] addresses TIR1 receptor protein with 6 His, maltose-binding protein (MBP) and FLAG affinity tags, expressed in insect cell culture using a recombinant baculovirus (UniProt Q570C0). The test is described as follows: SPR; with dicamba.
The target is the same in test [2]. Kind of test: SPR; with IAA (auxin).
Test [3] shares this target. The test is described as follows: SPR; with 2,4-D. For orientation: In SPR one partner is held on a chip, and binding of the other changes the refractive index at the surface.

Here are results for 2 substances from patent US20220127633A1.

For the substance “biotinylated Sisymbrium orientale IAA2 wild-type degron peptide”, the koff in test [1] is recorded as 3.29E-02 ?; in test [2] it was 2.08E-04 ?; in test [3], 1.93E-03 ?.
The like results for “biotinylated Sisymbrium orientale IAA2Δ27 degron peptide (9 amino acid deletion in the degron tail)” were, in that order, 4.04E-02 ?, 5.01E-04 ? and 2.71E-03 ?.
